Experiment [1] has as its target T1, Biotinylated wild type SARS-CoV-2 receptor binding domain (RBD) antigen (SARS-CoV-2, Wuhan isolate (wild type), UniProt P0DTC2 319-541).
The target in experiment [2] is T1, Biotinylated wild type SARS-CoV-2 …. This is another data set of the same source.

Read-outs that look alike come from different tables or passages of the source.

Results on 7 molecules are retold here after patent publication US20250296985A1 (TRANSLATIONAL HEALTH SCIENCE AND TECHNOLOGY INSTITUTE, published 2025).

By Kd is commonly meant the constant that tells how readily two partners part at equilibrium. A low value points to a tighter complex. The term koff denotes the rate constant with which the complex falls apart. Higher therefore signals a short-lived complex. As a reminder, the kon is the second-order rate constant of association. A lower kon goes with slow association.

B1: THSC20.HVTR88 (antibody, V domains shown)
VH: QVQLVQSGAEVKKPGASVKVSCKASGYPFTSYVISWVRQAPGQGLEWMGWISAYNGNTDYAQKLQGRVTMTTDTSTSTAYMELRSLRSDDTAVYYCAREGKYSSGWSYSEYFDYWGQGTLVTVSS
VL: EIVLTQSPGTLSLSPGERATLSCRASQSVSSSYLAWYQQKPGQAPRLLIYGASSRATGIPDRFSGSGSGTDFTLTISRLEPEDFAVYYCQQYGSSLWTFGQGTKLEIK
Molecule B1 showed a Kd in experiment [1] of 0.427 nM.

B2: THSC20.HVTR04 (antibody, V domains shown)
VH: QVQLVESGGGVVQPGRSLRLSCAASGFTFSNYAIHWVRQAPGKGLEWVAVVSYDGSNKYYAESVKGRFTISRDNSKNTLSLQMISLRPEDTAVYYCASVADTAMVPEWYFDLWGRGTLVTVSS
VL: QSVLTQPRSVSGSPGQSVTISCTGTSSDVGAYNYVSWYQQHPGKAPKLMIYDVSARPSGVPDRFSGSKSGNTASLTISGLQAEDEADYYCCSYAGSWVFGGGTKLTVL
As for B2, the Kd in experiment [2] was found to be 0.19 nM; in experiment [1], 0.196 nM.

B3: THSC20.HVTR55 (antibody, V domains shown)
VH: EVQLVQSGAEVKKPGESLRISCKGSGFRFTNYWIGWVRQMPGKGLEWMGIIYPGDSDTRYSPSFQGQVTISADKSLSTAYLQWSSLQASDTAIYYCARRDRWELDPLDYWGQGTLVTVSS
VL: DIVMTQSPSTLSASVGDRVTITCRASQSISSWLAWYQQKPGKAPNLLIYKASSLESGVPSRFSGSGSGTEFTLTISGLQPDDFATYYCQHYNGYPYTFGQGTKLEIK
As for B3, in experiment [1], the equilibrium dissociation constant (Kd) is less than 0.001 nM and the koff is less than 1e-07 s⁻¹.

B4: THSC20.HVTR26 (antibody, V domains shown)
VH: EVQLVESGGGLVQPGGSLRLSCAASGFTVSSNYMSWVRQAPGKGLEWVSAIYSGDSTYYADSVKGRFTISRHNPKNTLYLQMNSLRAEDTAVYYCARLVGALTNIVVSGDGGAFDIWGQGTMVTVSS
VL: SYELTQPASVSGSPGQSITISCTGTSSDVGSYNLVSWYQQHPGKAPKLMIYEVSKRPSGVSNRFSGSKSGNTASLTISGLQAEDEVDYYCCSYAGSSTWVFGGGTKLTVL
Consider B4, for which the Kd in experiment [2] was found to be 0.22 nM; in experiment [1] it was 0.255 nM.

B5: THSC20.HVTR11 (antibody, V domains shown)
VH: EVQLVQSGAEVKKPGSSVKVSCKASGGTFSSYTISWVRQAPGQGLEWMGRIIPILGIANYAQKFQGRVTITADKSTSTACMELSSLRSEDTAVYFCARIRGYSGYGSSYYFDYWGQGTLVTVSS
VL: QSVLTQPPSVSGAPGQRVTISCTGSSSNIGAGYDVHWYQQLPGTAPKLLIYGNSNRPSGVPDRFSGSKSGTSASLAITGLQAEDEADYYCQSYDSSLSHEVFGGGTKLTVL
As for B5, in experiment [1], the dissociation constant (Kd) was less than 0.001 nM, the koff was less than 1e-07 s⁻¹ and the kon is 103000 M⁻¹ s⁻¹.

B6: THSC20.HVTR39 (antibody, V domains shown)
V domain 1: QVQLQESGPGLVRPSETLSLTCIVSGGSINSRSYSWGWIRQPPGKGLEWIGNVYYSGTTYYNPSLKSRVTISVDTSKNQFSLNLSSVTAADTAVYYCARNLFYYDRSGSSHHDAFDIWGQGTMVTVSS
V domain 2: HGYVRPLSVAPGQTARITCGGNNIGSKSVHWYQQKPGQAPVLVVYGDGDRPSGIPERFSGSNSGNTATLTISRVEAGDEADYYCQVWDRGSDVWVFG
B6 yielded a Kd in experiment [1] of 0.513 nM.

B7: THSC20.HVTR06 (antibody, V domains shown)
VH: QLQLVQSGSELKKPGASVKVSCKASGYTFTKYTVNWVRQAPGQGLEWMGWINTNTGNPTSAQGFTGRFVFSLDTSVSTAYLHISSLKTEDTAVYYCARVLGDQQVVGGDDYYYYYAMDVWGQGTPVTVSS
VL: SYELTQPPSVSVSPGQTASITCSGDKLGDKYASWYQQKPGQSPVLVIYQDTKRPSGIPERFSGSNSGNTATLTITGTQAMDETDYYCQAWDNSGWVFGGGTKLTVL
As for B7, in experiment [1], the affinity, expressed as Kd, was 0.635 nM.
